Assay: Single-channel electrical recordings of protein pores in planar lipid bilayers
Assay type: biochemical
Conditions: +40 mV
[1] = 1 M KCl, 10 mM potassium phosphate, pH 7.4

B1: WT-FhuA: wild-type E. coli ferric hydroxamate uptake component A, 714-residue β-barrel outer membrane protein (protein, UniProt P06971 34-747, looked up)
Ferrichrome outer membrane …: AVEPKEDTITVTAAPAPQESAWGPAATIAARQSATGTKTDTPIQKVPQSISVVTAEEMALHQPKSVKEALSYTPGVSVGTRGASNTYDHLIIRGFAAEGQSQNNYLNGLKLQGNFYNDAVIDPYMLERAEIMRGPVSVLYGKSSPGGLLNMVSKRPTTEPLKEVQFKAGTDSLFQTGFDFSDSLDDDGVYSYRLTGLARSANAQQKGSEEQRYAIAPAFTWRPDDKTNFTFLSYFQNEPETGYYGWLPKEGTVEPLPNGKRLPTDFNEGAKNNTYSRNEKMVGYSFDHEFNDTFTVRQNLRFAENKTSQNSVYGYGVCSDPANAYSKQCAALAPADKGHYLARKYVVDDEKLQNFSVDTQLQSKFATGDIDHTLLTGVDFMRMRNDINAWFGYDDSVPLLNLYNPVNTDFDFNAKDPANSGPYRILNKQKQTGVYVQDQAQWDKVLVTLGGRYDWADQESLNRVAGTTDKRDDKQFTWRGGVNYLFDNGVTPYFSYSESFEPSSQVGKDGNIFAPSKGKQYEVGVKYVPEDRPIVVTGAVYNLTKTNNLMADPEGSFFSVEGGEIRARGVEIEAKAALSASVNVVGSYTYTDAEYTTDTTYKGNTPAQVPKHMASLWADYTFFDGPLSGLTLGTGGRYTGSSYGDPANSFKVGSYTVVDALVRYDLARVGMAGSNVALHVNNLFDREYVASCFNTYGCFWGAERQVVATATFRF
- all-points histogram current amplitude peak: ~12.5 pA
- Conductance [1]: 0.3 ± 0.2 nS
- single-channel conductance [1]: 0.3±0.2 nS

— patent US8916684B2, “Bioengineered protein pores” (Syracuse University, priority 2010, dated 2014)
